Assay results published in the DeepSol protein solubility set.

Test: soluble on expression in E. coli; label from the status in PepcDB or PDB records

Sequence	soluble on expression in E. coli
MSLNFTEDGTLPLLGSKDAKIAIIEFSDFQCPYCKRFTDSAFKQIKENYIDTGKVQYIARDFPLSFHAKAMGAAIAATCSLHQNSYWPMRDMLFSNVKDLGEELYQKAATDLSLNLEEFNKCMKDKSIANKVEQDLTLGKSLGIRGTPSFLIGRVENDQLIEPQIVVGAQRYAVFESLLEQLSNSDKAKEGHHHHHH	soluble
MENVTESKELERLKRIDRMKTEFIANISHELRTPLTAIKAYAETIYNSLGELDLSTLKEFLEVIIDQSNHLENLLNELLDFSRLERKSLQINREKVDLCDLVESAVNAIKEFASSHNVNVLFESNVPCPVEAYIDPTRIRQVLLNLLNNGVKYSKKDAPDKYVKVILDEKDGGVLIIVEDNGIGIPDHAKDRIFEQFYRVDSSLTYEVPGTGLGLAITKEIVELHGGRIWVESEVGKGSRFFVWIPKDRAGEDNRQDN	soluble
MSLEKLTVSDSKKLFHEQFPYVIPGLYKRIVDEMLVELNLLNHQNEFIQDDLFCVGLTETFKELTKGYKPEEHLRVLFESLCNSSNFEPKKIKEASKKTLEVYKDKSLKEISILLKQKSDSNLYSSRIMNLGIYLIIANATDFKDIKDPEKNKIISDIINKLNLSFNKAEKDIGIYKSSILKMEQAKELLQEAKIKDKKEKEGHHHHHH	soluble
SLTRAVAALLPDGKRLHLQHGPIDLIIGAEGGPGAREAAFVTATARFETVLAELVGELPLLKTELAPDAPLPLGPVARRMDTACRPLMALRLTRMAAVAGAVADEVLAAMLSSTPLTRAYVNNGGDIALHLTGDTRFTLAMATPDGRDLGRISLGTGDRIGGIATSGLGGRSLSLGIAESVTVLAPSAAGADAAATLIANATDLPGHPAIRRAPANTVKDDSDLGQRPVVTHCGPLDRNEVLHALENGRKLAVEMIANGHIRSAHLSLRGQSCQAGAIPVIAPERRLALA	soluble
MGSDKIHHHHHHLRIFGKEGCRMEMQRVIELDMPVNFRDLGGYQGLDGRQVKWRKIYRSAALNEMSARDRVKLANLRITVDCDLRSSREQRSYPDLLWPGVRFVNIGLYAEGDRFNQAHPFLRLFHHLPEFDDYLPKIYQQVLLNEHSEEGIKRVFEELLKLPEDQALVYHCAAGKDRTGIISILILMALGVDDKTIAEDYLLTDELYDFSIEKQHPTNEKLSQVIAKMNVTRGEGTAVKGITETIRQGWGSFDKFFTRKLGFKQADLEKFREMYLEEEEED	not soluble
MKKLKMKKLISLLLTLTMILALTACGAKETGKSQDESDLNYVKSKGKLIIGYTNYAPMNYTDENGVFTGFDTELAILTCEKLGVEPEFVEINWDTKEVELNAKSIDCIWNGLTIDDDRKAKMEITQPYVKNAQVVLVKEGTEYNGTESLIGKTVVAEQSSAGEKTIMADENLKKANYVPKTLQTDCLMELKSGTADAAVLDLTLAKTMTGEGTSYEDIVIVDYLAEENYGVAFRKGSDICAEVNKIFDDFLADGTMAALAEKYGLELAE	not soluble
MSAVSYSMHRTTTTTSSSSHGGVSAGHAAEEFVASAEREKQEMQQLNSRLEVYISRVRQLEDRNKELVIELDTLRGSLGNDIGQIKFKFNDSLVKVRREISEAHSGTIGVEVKVDRLRDDLNDYRHRYEEARREVEREKTTWGGAISQAQAELDTNKSRYAAILDEEKRLYAEQDQLYLQLAAAKDELDAAIVDRRRLQAEEDDLKIELEFLGRIHSQEITELRTLLAQAPADTREFFKNELALAIREIKAEYDKIIQTTRVDLETIFQSKISAVESSIVSKNEAAVFRQEEIRKMNESITTLRAKLSELEARNSALEREANTLQIQLGEDQRAYESELHKRDNALRFMREDCQTLIAELQALLNTKQTLDTEIAIYRKLVESEEGRFTHVGQGVVVAQQETTRLVPVEQDHWDSGEVQTRSSFKRHAKGNVSIVECDPQGKYIILENTSGSVAEDVSNFEIRRVIDGVQAFVFRLPSHLVIQQHGHLKIYGRNSGGINSPPDSIVMESHPSWGQGGQVETFLYNSHGIEKASHIQTTVASSR	not soluble
MFLSVFELFKIGIGPSSSHTMGPMTAANMFLREIMRCNFLRSSHTGISHIRVYLYGSLAFTGVGHATDRAVILGLLGEEAATVNPDNIDILLEKVTREKKVQPDGHPAYWFNLQSDLIFKRKEVLPGHTNGLAFEGLDADGNVLLRQTYYSIGGGFVVTEDELNCINGNTQSKTSKVPYPFDSARKMLSMAEKSGLSIAEMKRLNEETKMERSALNTGLDNIFSAITKCIDRGLSQEGELPGGLRVSRRAKKLYETLLENQKKNRNYPLLANDWLSVYAIAVNEENAAGGRVVTAPTNGAAGVVPAVLRYYLQFNDNSDQEGIHNFLLTAAAIGGVIKHNASISGAEVGCQGEVGTASSMAAAGLTAVLGGTPAQIENAAEIALEHHLGMTCDPVAGLVQIPCIERNAMGAVKAVTASSLALHGNGKHFVSLDACIETMRQTGHDMSERYKETSKAGLAVNAISC	not soluble
MSVAVATLHAAASGAVLRRRRTYIHPQQPAADVCPQACTRICPPPPLPHGLRVRGGHLVRYTACVPAHTGSMSASSTVSDRRVCIFFDCRVAGDGKGYEELRQTVYAQCSQLLTLSYLHYQRSGTTLSATVHLVTHTRVESFATPFCATSTDHPIDSGAAGVISGLRALAAAQPDHSVNACGAAIFGNRMESVLPHVQRALGGSQQRHQLILFCSSYVSHTEATQSLSGLCLDASPHQRLRCILVDWEAVCVTVGELASNVRVYRCSRSARQLQAAMQEILSLFLLPDVRSSRRLGLQLGLQAVPVIATISHYGAFLDGRDTIGSVVATDRASSAAAPMAGGVMHQRLAETNHRHNRANAASVVERDDRDPWSTLHLRAVLEADNIDESFLMGDTWTLALDTSAASTSTLTSSSAPSWPCTASTVALWHAFCNAFLGDALVFTGEETGIEAHRHAMQRHHHFVAYFMPDRTMRVREIVPPELRFVPLPAFPTREGLREQKAYTTEMQRLREQLVSHCACASFSLDALLSSGGHGAASTP	not soluble
MAHHHHHHMTFSVKGGSYSSSHPSPAMHPYVSPSLLPQSHGQQAPPSFSLGDEQYVGVPKRVGVDPTKYKTTICRNWEQTGTCAFRGCTFAHGVEELRAPLRPDGHTPVLRPQHISPGSTPPLRASQPPPPPSSGHYTLEQLLDMLYKEVLHQRELVTVHVEANTTLEGMLRREQAQHDASKKQLEEKTQQCELFARELFARNQQLRKAADSSPEIKELLDQWETQLASFSEADVKKDDVFHTATATSSTDDGGDSGKEYESARIEELLRALQR	not soluble
MGSDKIHHHHHHMNFILELLRREQGRQQKELEFSQLPYQQRVAQLKEQKLPLFFYKYHSLHSHNPNKPQEKWEHASDYLINSRFYLSRPANFNDPFDMRAYFTDSVPKEKKRYFLDQLLKIRTPQLTEKDRVLEVKKLLDNPEKLRTIHKLTLDEAVDSFGVSCLSTAPCNILMWSHYANHHRGIAFQFNFAIDIFSFKWLQPVSYSNDFPGIEYFERRDNKYSIALLTKHHGWEYEKEWRIVKPNGAGTYQDFNSKILTGVILGCRIDRKDEDKIRTMIEQRKEQGLSSVKLYKLRQHESRYKLVIKHVE	not soluble
MAAAAARSTSPFEIRHAVTIAAPPEAVFDYVTNPKSWPEWLPSSHALECDDRPMGFGDTFHEHWSTRSGPVDLDWLVIACDRPLLWIGLTQTSFMGPVVVHYTFEAVDDGTRFTRILRNPARPKPPTAEMIERMSTEAELGLGNIKRIVERR	not soluble
MTERLKVMTIFGTRPEAIKMAPLVLELQKHPEKIESIVTVTAQHRQMLDQVLSIFGITPDFDLNIMKDRQTLIDITTRGLEGLDKVMKEAKPDIVLVHGDTTTTFIASLAAFYNQIPVGHVEAGLRTWDKYSPYPEEMNRQLTGVMADLHFSPTAKSATNLQKENKDESRIFITGNTAIDALKTTVKETYSHPVLEKLGNNRLVLMTAHRRENLGEPMRNMFRAIKRLVDKHEDVQVVYPVHMNPVVRETANDILGDYGRIHLIEPLDVIDFHNVAARSYLMLTDSGGVQEEAPSLGVPVLVLRDTTERPEGIEAGTLKLAGTDEETIFSLADELLSDKEAHDKMSKASNPYGDGRASERIVEAILKHFNK	not soluble
MGHHHHHHSHIELVCWYMVDRDSIDDEPVDIAFIEGSVSTEEEVELVKKIRENSKIVVAVGACAVQGGVQSWTDKSLEELWRTVYGDAKVKFKPKKAEPVSKYIKVDYNIYGCPPEKRDFLYALGTFL	not soluble
VRFVSELCALHGTDPVPMALIMEPVSKWSPSQVVDWMKGLDDCLQQYIKNFEREKISGDQLLRITHQELEDLGVSRIGHQELILEAVDLLCALNYGLETENLKTLSHKLNASAKNLQNFITGRRRSGHYDGRTSRKLPNDFLTSVVDLIGAAKSLLAWLDRSPFAAVTDYSVTRNNVIQLCLELTTIVQQDCTVYETENKILHVCKTLSGVCDHIISLSSDPLVSQSAHLEVIQLANIKPSEGLGMYIKSTYDGLHVITGTTENSPADRCKKIHAGDEVIQVNHQTVVGWQLKNLVNALREDPSGVILTLKKRPQSMLTSAPALLKNMRWKPLALQPLIPRSPTSSVATPSSTISTPTKRDSSALQDLYIPPPPAEPYIPRDEKGNLPCEDLRGHMVGKPVHKGSESPNSFLDQEYRKRFNIVEEDTVLYCYEYEKGRSSSQGRRESTPTYGKLRPISMPVEYNWVGDYEDPNKMKRDSRRENSLLRYMSNEKIAQEEYMFQRNSKKDTGKKSKKKGDKSNSPTHYSLLPSLQMDALRQDIMGTPVPETTLYHTFQQSSLQHKSKKKNKGPIAGKSKRRISCKDLGRGDCEGWLWKKKDAKSYFSQKWKKYWFVLKDASLYWYINEEDEKAEGFISLPEFKIDRASECRKKYAFKACHPKIKSFYFAAEHLDDMNRWLNRINMLTAGYAERERIKQEQDYWSESDKEEADTPSTPKQDSPPPPYDTYPRPPSMSCASPYVEAKHSRLSSTETSQSQSSHEEFRQEVTGSSAVSPIRKTASQRRSWQDLIETPLTSSGLHYLQTLPLEDSVFSDSAAISPEHRRQSTLPTQKCHLQDHYGPYPLAESERMQVLNGNGGKPRSFTLPRDSGFNHCCLMLQLVPVTHRMTCNPQRWRKRRRRRRRKGRQQGKT	soluble
MNWGEGEWNSFFHFFTKEFINMSESFKELFEQSIAGAQFYPGAIITAKVIDIDDDFVTLNAGLKSEGIVAVEEFYDKNGELEVKVGDTVEVALDSVEDGHGETLLSREKAKRQEAWRKLSKCHENNETVTGLISGKVKGGFTVEIGSIRAFLPGSLVDVRPVRDPSYLEGKELEFKVIKMDLKRNNIVVSRRAVVEEESSADRQALLESLHDGQELHGIVKNLTDYGAFIDLGGIDGLLHITDISWKRVKHPSEVLSVGQDVKVKVLSFDSERNRVSLGMKQLGNDPWVDLVERYPIGKRLQGKVTNITDYGCFVEIEEGVEGLVHMSEMDWTNKNVHPSKVVSLGDVVDVMVLEIDEERRRISLGMKQCVGNPWQQFASTHNKGEKVKGKIRSITDFGIFIGLDGDIDGLVHLSDISWTVPGEEAVKQFKKGQELEAVILAIDPERERISLGLKQLEGDSFASFAETYTKGSIVKGTVTAVEPKTVTVALAEDVSGTIRVSELSDERVDDATTIVKVGDEVEAKITNIDRKNRTISLSVKAKDAQDEADAIKKYSRTEAASTTLGDLLKEKMASKEGELEHHHHHH	soluble
PQEVESYVHRIGRTGRAGKEGTAITFITPQEYRRLLQIQKAVKKEIKKEKLPDVKDVIQAKKFRIIDDIGQILIDNDYDKFKKLAKDLLKMEDAENIVASLLKLSYSDVLDESNYNEISPVKMEDTGKTRLFIAMGRKDGMTPK	not soluble
MMVTFGEPGVYSSYSNPLPSTDTWEDCLEYCLGLSTCVAVYNNNCQMFEIGQISTATSTSETKIAFKFLADNATCPIQEPTSLQGHYFTNTTYQPYTVSYSAPTWTFANSTQLECPTNYALFVRDLGPWCMKVIQHYACCNKTIAATMCNSYGAQLSGLDSTAEYDFMLAGSWPIFKNVTTNKIGSTQYYATGVWVDGARTLACMGNTTYPCNTTQAFSFTDPTLSSPPGGYLWLPGRPDGGDAPADGIVLNLYTTELYGMEDTPSSEPVSGVYCWMGYLCGAVPT	not soluble
